B2: FliM (S. Typhimurium) (natural protein, UniProt P26418 1-334, looked up)
chain: MGDSILSQAEIDALLNGDSDTKDEPTPGIASDSDIRPYDPNTQRRVVRERLQALEIINERFARQFRMGLFNLLRRSPDITVGAIRIQPYHEFARNLPVPTNLNLIHLKPLRGTGLVVFSPSLVFIAVDNLFGGDGRFPTKVEGREFTHTEQRVINRMLKLALEGYSDAWKAINPLEVEYVRSEMQVKFTNITTSPNDIVVNTPFHVEIGNLTGEFNICLPFSMIEPLRELLVNPPLENSRHEDQNWRDNLVRQVQHSELELVANFADIPLRLSQILKLKPGDVLPIEKPDRIIAHVDGVPVLTSQYGTVNGQYALRVEHLINPILNSLNEEQPK
notes: FliM, flagellar motor switch protein of Salmonella enterica serovar Typhimurium; endogenous protein in basal bodies; The extreme N-terminus is disordered in both structures; also called FliMM; FliMC; source: endogenous, S. Typhimurium strains TH25455 (CCW locked) and TH25631 (CW locked), in purified basal bodies; copies: 34

What was measured:
[1] = molecular target: C. sporogenes MotB with C-terminal Twin-Strep tag (Clostridium sporogenes); experiment: cryo-EM structure; C. sporogenes MotA1–262-FliG239–333 fusion co-expressed with MotB-Twin-Strep in E. coli, purified in LMNG; 2.4 Å map
[2] = molecular target: the molecule itself; experiment: cryo-EM structure; intact flagellar basal bodies with C-rings from S. Typhimurium TH25631 (fliG-ΔPAA, CW locked), assembled in cells and purified on a sucrose gradient in Triton X-100; C34 class, symmetry expansion and local refinement around 3 subunits, 4.0 Å global
FliM (S. Typhimurium) [3] = molecular target: B2; experiment: cryo-EM structure; intact flagellar basal bodies with C-rings from S. Typhimurium TH25455 (ΔcheY, CCW locked), assembled in cells and purified on a sucrose gradient in Triton X-100; C34 class, symmetry expansion and local refinement around 3 subunits, 3.6 Å global; conditions: both partners purified
[4] = molecular target: the molecule itself; experiment: as above
[5] = molecular target: C. sporogenes MotA5MotB2 stator complex (Clostridium sporogenes); experiment: cryo-EM structure; C. sporogenes MotA1–262-FliG239–333 fusion co-expressed with MotB-Twin-Strep in E. coli, purified in LMNG; 2.4 Å map
[6] = molecular target: the molecule itself; experiment: as above
[7] = molecular target: T1, FliF (S. Typhimurium, MS-ring protein) (S. Typhimurium (endogenous in strains …, UniProt P15928 1-560)); experiment: cryo-EM structure; intact flagellar basal bodies with C-rings from S. Typhimurium TH25455 (ΔcheY, CCW locked), assembled in cells and purified on a sucrose gradient in Triton X-100; C34 class, symmetry expansion and local refinement around 3 subunits, 3.6 Å global; conditions: both partners purified
T1 construct: FliF, flagellar M-ring protein of Salmonella enterica serovar Typhimurium; endogenous protein in basal bodies; only its C-terminus (residues 523–560) is described in the C-ring models; also called FliFC; FliF C-terminus; source: endogenous, S. Typhimurium strains TH25455 (CCW locked) and TH25631 (CW locked), in purified basal bodies
T1 sequence (looked up): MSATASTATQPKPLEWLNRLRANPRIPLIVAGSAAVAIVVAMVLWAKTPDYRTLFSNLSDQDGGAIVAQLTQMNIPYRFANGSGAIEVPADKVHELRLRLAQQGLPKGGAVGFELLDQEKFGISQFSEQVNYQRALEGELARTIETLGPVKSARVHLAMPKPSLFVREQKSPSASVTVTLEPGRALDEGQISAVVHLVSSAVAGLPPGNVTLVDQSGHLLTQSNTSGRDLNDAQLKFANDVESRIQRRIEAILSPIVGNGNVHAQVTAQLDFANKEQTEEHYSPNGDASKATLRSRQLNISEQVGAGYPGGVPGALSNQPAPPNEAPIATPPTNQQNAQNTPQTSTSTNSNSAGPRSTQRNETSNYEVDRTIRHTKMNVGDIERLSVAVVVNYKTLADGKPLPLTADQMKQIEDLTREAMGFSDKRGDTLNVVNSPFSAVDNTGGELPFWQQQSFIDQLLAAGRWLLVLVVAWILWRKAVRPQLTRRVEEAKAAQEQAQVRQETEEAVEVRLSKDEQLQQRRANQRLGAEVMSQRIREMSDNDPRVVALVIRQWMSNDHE

[8] = molecular target: T1, FliF (S. Typhimurium, MS-ring protein); experiment: cryo-EM structure; intact flagellar basal bodies with C-rings from S. Typhimurium TH25631 (fliG-ΔPAA, CW locked), assembled in cells and purified on a sucrose gradient in Triton X-100; C34 class, symmetry expansion and local refinement around 3 subunits, 4.0 Å global; conditions: both partners purified
FliM (S. Typhimurium) [9] = molecular target: B2; experiment: as above; conditions: both partners purified

C. sporogenes MotB with C-terminal Twin-Strep tag (natural protein)
stoichiometry N [1]: 2

B1: FliN (S. Typhimurium) (natural protein, UniProt P26419 1-137, looked up)
chain: MSDMNNPSDENTGALDDLWADALNEQKATTTKSAADAVFQQLGGGDVSGAMQDIDLIMDIPVKLTVELGRTRMTIKELLRLTQGSVVALDGLAGEPLDILINGYLIAQGEVVVVADKYGVRITDIITPSERMRRLSR
notes: FliN, flagellar motor switch protein of Salmonella enterica serovar Typhimurium; endogenous protein in basal bodies; Three copies of FliN in each C-ring subunit; also called FliN3; source: endogenous, S. Typhimurium strains TH25455 (CCW locked) and TH25631 (CW locked), in purified basal bodies
binding result [2]: binds | stoichiometry N (FliM (S. Typhimurium) [3]): 3

B2
binding result [4]: binds

B3: C. sporogenes FliG C-terminal domain (residues 239–333, of the MotA1–262-FliG239–333 fusion) (domain or fragment)
chain: VFEDIITLDDVAIQRVLREVETKDLALALKGSSEEVANVIFRNQSKRAASSLKEDIEFLGPVRIMDVEKAQQGIVSIIRRLDEAGEIVISRGGED
stoichiometry N [5]: < 3

B4: C. sporogenes MotA (residues 1–262, of the MotA1–262-FliG239–333 fusion) (domain or fragment, Clostridium sporogenes, UniProt A0A7U4JQH9 1-262, looked up)
chain: MKKRDILTPIGFVLCFGLVLWGMASGGSNLKVFWDVASVFITIGGSMAAMLITYPMDEFKRLLIVIRQTFKDNGMSNIDVIQNFVDLSRKARREGLLSLEDAINNLTDDYMKKGLRMVVDGIEPETIREIMELEIDEMEKRHKSGADMLKTWGGYAPAFGMVGTLIGLIQMLANLTDSSTIASGMGKALITTFYGSLMANAVFNPMGANLMFKSGVEATTREMVLEGVLAIQSGVNPRIMEEKLVSYLSPPERQAYSKVQVS
notes: MotA of Clostridium sporogenes 388 (DSM 795), residues 1–262; several linker lengths were tried) to FliG 239–333 on one chain; also called MotA component; source: E. coli MT56, pT12 vector, co-expressed with MotB, purified (LMNG, Strep-Tactin XT, Superose 6)
stoichiometry N [6]: 5

B5: FliG (S. Typhimurium, wild type, in the CCW-locked C-ring) (natural protein, UniProt P0A1J9 1-331, looked up)
chain: MSNLSGTDKSVILLMTIGEDRAAEVFKHLSTREVQALSTAMANVRQISNKQLTDVLSEFEQEAEQFAALNINANEYLRSVLVKALGEERASSLLEDILETRDTTSGIETLNFMEPQSAADLIRDEHPQIIATILVHLKRSQAADILALFDERLRHDVMLRIATFGGVQPAALAELTEVLNGLLDGQNLKRSKMGGVRTAAEIINLMKTQQEEAVITAVREFDGELAQKIIDEMFLFENLVDVDDRSIQRLLQEVDSESLLIALKGAEPPLREKFLRNMSQRAADILRDDLANRGPVRLSQVENEQKAILLIVRRLAETGEMVIGSGEDTYV
notes: FliG, flagellar motor switch protein of Salmonella enterica serovar Typhimurium; endogenous protein in basal bodies; residues up to 331 are named; One FliG in each of the about 34 C-ring subunits (C34 is the dominant class); also called FliGN; FliGM; source: endogenous, S. Typhimurium strain TH25455 (CCW locked, ΔcheY), in purified basal bodies (sucrose gradient); copies: 34
binding result [7]: binds | binding result (FliM (S. Typhimurium) [3]): binds | stoichiometry N [4]: 34

B6: FliG-ΔPAA (S. Typhimurium, CW-locking deletion of residues 169–171) (natural protein)
chain: MSNLSGTDKSVILLMTIGEDRAAEVFKHLSTREVQALSTAMANVRQISNKQLTDVLSEFEQEAEQFAALNINANEYLRSVLVKALGEERASSLLEDILETRDTTSGIETLNFMEPQSAADLIRDEHPQIIATILVHLKRSQAADILALFDERLRHDVMLRIATFGGVQLAELTEVLNGLLDGQNLKRSKMGGVRTAAEIINLMKTQQEEAVITAVREFDGELAQKIIDEMFLFENLVDVDDRSIQRLLQEVDSESLLIALKGAEPPLREKFLRNMSQRAADILRDDLANRGPVRLSQVENEQKAILLIVRRLAETGEMVIGSGEDTYV
notes: FliG of Salmonella enterica serovar Typhimurium with the CW-locking PAA deletion at residues 169–171; also called CW-locked mutant; source: endogenous locus mutant, S. Typhimurium strain TH25631 (CW locked), in purified basal bodies (sucrose gradient); copies: 34
binding result [8]: binds | binding result (FliM (S. Typhimurium) [9]): binds | stoichiometry N [2]: 34

Source: paper PMC11302681, “Structural Basis of Directional Switching by the Bacterial Flagellum” (Research Square, 2023)
